One experiment deals with T1, rat Dlk-1 (rat, UniProt O70534 24-306, limits assumed).
T1 sequence (looked up): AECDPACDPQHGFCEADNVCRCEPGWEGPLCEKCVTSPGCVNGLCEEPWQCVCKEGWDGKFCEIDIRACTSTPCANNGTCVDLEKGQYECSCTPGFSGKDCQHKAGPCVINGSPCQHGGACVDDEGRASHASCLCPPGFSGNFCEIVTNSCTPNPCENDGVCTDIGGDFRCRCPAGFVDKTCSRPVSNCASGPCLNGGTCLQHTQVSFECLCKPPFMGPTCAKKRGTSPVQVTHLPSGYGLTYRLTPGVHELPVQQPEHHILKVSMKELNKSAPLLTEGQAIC
The experiment is described as follows: not described (stated in the heading of the rat toxicology study).

Experiment [1] has as its target T2, Human KAAG1 (Kidney associated antigen 1) (human, UniProt Q9UBP8 1-84).
T2 sequence: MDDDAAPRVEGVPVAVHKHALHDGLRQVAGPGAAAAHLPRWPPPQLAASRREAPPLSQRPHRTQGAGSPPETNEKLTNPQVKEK
In words: cell-based or functional assay.

B1: ConjA1 (anti-DLK1 antibody HuBa-1-3d conjugated to drug linker 4) (antibody, V domains shown)
VH: QVQLVQSGAEVKKPGASVKVSCKGSGYTFTDYAMHWVRQAPGQGLEWIGVISTYYGNTNYNQKFKGKATMTVDKSTSTAYMELRSLRSDDTAVYYCARGGLREYYYAMDYWGQGTMVTVSS
VL: DIVMTQSPDSLAVSLGERATINCKSSQSLLNSSNQKNYLAWYQQKPGQPPKLLVYFASTRESGVPDRFSGSGSGTDFTLTISSLQAEDVAVYYCQQHYSTPPTFGQGTKLEIKR
modifications: PBD drug linker 4 (PL1601) attached through the remodelled glycan (GalNAc-N3) on Asn297; average DAR of 1.87
notes: also called anti-DLK1 ADC; ADC
Consider B1, for which the binding result with rat Dlk-1 is “no binding”.

B2: ConjA2 (anti-KAAG1 antibody 3A4 conjugated to drug linker 4 / PL1601) (antibody, human IgG1, kappa, V domains shown)
VH: QIQLVQSGAEVKKPGASVKVSCKASGYTFTDDYMSWVKQAPGQGLEWIGDINPYNGDTNYNQKFKGKATLTVDKSTSTAYMELSSLRSEDTAVYYCARDPGAMDYWGQGTLVTVSS
VL: DIVMTQTPLSLPVTPGEPASISCRSSQSLLHSNGNTYLEWYLQKPGQSPQLLIYTVSNRFSGVPDRFSGSGSGTDFTLKISRVEAEDVGVYYCFQGSHVPLTFGQGTKLEIKR
modifications: PBD drug linker PL1601 (4) attached through the remodelled glycan (GalNAc-N3) on Asn297; average DAR of 1.9
Take B2: in experiment [1], the “EC50, in vitro cytotoxicity (CellTiter-Glo) on MDA-MB-231 cells” value amounted to 0.226 µg/mL and the “EC50, in vitro cytotoxicity (CellTiter-Glo) on SN12C cells” value was 0.0663 µg/mL.

(Values after US20230053603A1 (ADC THERAPEUTICS, published 2023).)
